Data from the supplement of paper PMC10065799, “High-throughput profiling of sequence recognition by tyrosine kinases and SH2 domains using bacterial peptide display” (eLife, 2023).

How the values were obtained:
Fyn = Fyn (UniProt P06241); assay: phosphorylation enrichment, bacterial display (enrichment ratio); higher = better substrate or ligand; peptides without Tyr show the background
Fer (mouse) = assay: as above
Fes = Fes (UniProt P07332); assay: as above
EPHB1 = EPHB1 (UniProt P54762); assay: as above
Hck = Hck (UniProt P08631); assay: as above
FGFR3 = FGFR3 (UniProt P22607); assay: as above
c-Abl (mouse) = assay: as above
FGFR1 = FGFR1 (UniProt P11362); assay: as above
Jak2 = Jak2 (UniProt O60674); assay: as above
AncSZ = assay: as above
c-Src = assay: as above
MERTK = MERTK (UniProt Q12866); assay: as above
EPHB2 = EPHB2 (UniProt P29323); assay: as above
c-Src SH2 = assay: SH2 binding enrichment of the phosphorylated peptide, bacterial display (enrichment ratio); higher = better substrate or ligand; peptides without Tyr show the background
Grb2 SH2 = Grb2 SH2 (UniProt P62993); assay: as above
SHP2-C SH2 = assay: as above
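For SH2 binding enrichment of the phosphorylated peptide, bacterial display in this document: peptide library displayed on the E. coli surface as eCPX fusions, selected cells deep-sequenced, score is each peptide's frequency after selection divided by its frequency in the input.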
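For phosphorylation enrichment, bacterial display in this document: 11-residue human phosphosite peptides and single-mutation variants displayed on the E. coli surface, counted by deep sequencing, each peptide's frequency after selection divided by its frequency in the unselected input library; frequency after pTyr selection over input frequency; kinase dosed for 20-30% of maximal phosphorylation in three min.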

Sequence of Grb2 SH2 (P62993 whole entry, looked up): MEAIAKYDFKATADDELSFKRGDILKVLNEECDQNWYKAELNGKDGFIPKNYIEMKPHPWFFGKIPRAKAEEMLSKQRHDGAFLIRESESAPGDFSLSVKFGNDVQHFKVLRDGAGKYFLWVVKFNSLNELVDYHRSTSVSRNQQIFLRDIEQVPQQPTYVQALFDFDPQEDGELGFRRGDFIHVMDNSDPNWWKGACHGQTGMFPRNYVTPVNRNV
Sequence of EPHB2 (P29323 whole entry, looked up): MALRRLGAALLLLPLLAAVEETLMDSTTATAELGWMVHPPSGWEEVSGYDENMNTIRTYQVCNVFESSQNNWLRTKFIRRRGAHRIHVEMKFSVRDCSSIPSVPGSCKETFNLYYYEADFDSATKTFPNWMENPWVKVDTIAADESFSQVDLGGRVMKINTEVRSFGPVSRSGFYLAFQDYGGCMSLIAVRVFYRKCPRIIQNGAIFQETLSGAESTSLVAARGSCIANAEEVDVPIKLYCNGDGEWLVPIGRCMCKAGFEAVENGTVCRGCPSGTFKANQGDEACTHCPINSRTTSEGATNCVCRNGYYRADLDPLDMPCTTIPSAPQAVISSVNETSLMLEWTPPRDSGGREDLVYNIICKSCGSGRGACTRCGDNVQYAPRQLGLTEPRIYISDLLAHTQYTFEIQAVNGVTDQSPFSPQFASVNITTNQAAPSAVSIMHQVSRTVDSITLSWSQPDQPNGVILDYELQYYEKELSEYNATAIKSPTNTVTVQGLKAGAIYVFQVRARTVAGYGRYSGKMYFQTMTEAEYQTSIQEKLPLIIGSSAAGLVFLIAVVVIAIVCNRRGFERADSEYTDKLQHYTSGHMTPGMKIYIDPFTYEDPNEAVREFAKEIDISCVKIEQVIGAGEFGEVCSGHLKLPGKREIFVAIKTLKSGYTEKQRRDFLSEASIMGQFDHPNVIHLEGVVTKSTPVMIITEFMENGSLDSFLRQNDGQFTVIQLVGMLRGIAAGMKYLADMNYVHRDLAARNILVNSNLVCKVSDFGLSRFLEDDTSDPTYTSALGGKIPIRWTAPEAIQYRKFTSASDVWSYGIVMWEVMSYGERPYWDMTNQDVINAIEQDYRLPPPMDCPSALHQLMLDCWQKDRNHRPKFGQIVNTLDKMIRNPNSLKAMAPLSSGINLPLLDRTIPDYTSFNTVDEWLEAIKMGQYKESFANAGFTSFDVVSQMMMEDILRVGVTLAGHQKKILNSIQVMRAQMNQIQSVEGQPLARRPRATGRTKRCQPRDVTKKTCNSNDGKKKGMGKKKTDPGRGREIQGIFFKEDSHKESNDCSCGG
Sequence of MERTK (Q12866 whole entry, looked up): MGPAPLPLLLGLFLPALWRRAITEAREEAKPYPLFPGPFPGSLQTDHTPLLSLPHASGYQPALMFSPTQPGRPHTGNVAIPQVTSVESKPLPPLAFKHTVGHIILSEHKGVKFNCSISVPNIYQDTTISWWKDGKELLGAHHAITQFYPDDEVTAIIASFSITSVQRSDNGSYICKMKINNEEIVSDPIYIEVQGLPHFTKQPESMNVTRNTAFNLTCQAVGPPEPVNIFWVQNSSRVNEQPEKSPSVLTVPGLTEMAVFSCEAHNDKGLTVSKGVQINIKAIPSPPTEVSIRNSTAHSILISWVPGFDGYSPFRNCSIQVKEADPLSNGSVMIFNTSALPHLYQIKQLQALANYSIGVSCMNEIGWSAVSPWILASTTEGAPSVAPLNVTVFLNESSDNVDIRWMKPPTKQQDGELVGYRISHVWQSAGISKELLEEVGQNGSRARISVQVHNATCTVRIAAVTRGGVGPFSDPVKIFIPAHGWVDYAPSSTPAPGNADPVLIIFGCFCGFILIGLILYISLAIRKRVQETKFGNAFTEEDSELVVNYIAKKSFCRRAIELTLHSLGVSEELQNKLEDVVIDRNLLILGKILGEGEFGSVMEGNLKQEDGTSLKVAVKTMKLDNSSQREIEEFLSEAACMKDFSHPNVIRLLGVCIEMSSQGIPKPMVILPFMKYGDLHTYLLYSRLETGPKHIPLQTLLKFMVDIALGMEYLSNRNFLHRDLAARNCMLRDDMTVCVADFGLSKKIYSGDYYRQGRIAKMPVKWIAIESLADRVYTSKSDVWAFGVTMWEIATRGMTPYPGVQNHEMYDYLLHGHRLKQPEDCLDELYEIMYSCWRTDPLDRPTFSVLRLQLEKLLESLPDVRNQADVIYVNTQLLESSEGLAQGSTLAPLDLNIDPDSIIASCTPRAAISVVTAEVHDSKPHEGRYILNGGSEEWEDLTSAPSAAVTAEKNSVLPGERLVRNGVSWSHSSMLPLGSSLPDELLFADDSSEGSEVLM
Sequence of Fyn (P06241 whole entry, looked up): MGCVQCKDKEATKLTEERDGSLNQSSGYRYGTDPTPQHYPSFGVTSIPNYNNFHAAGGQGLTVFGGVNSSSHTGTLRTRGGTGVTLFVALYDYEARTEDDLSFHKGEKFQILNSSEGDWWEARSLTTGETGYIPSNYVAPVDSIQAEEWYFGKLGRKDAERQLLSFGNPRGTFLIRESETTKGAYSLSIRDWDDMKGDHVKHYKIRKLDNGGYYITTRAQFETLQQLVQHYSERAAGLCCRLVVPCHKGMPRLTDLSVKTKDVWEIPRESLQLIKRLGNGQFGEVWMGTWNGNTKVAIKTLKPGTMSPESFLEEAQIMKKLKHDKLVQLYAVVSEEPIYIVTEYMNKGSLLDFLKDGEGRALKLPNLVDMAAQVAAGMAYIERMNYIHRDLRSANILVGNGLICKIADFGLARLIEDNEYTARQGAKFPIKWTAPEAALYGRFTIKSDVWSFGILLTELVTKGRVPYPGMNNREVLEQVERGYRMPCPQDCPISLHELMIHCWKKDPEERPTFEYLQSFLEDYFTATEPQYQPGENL
Sequence of FGFR3 (P22607 whole entry, looked up): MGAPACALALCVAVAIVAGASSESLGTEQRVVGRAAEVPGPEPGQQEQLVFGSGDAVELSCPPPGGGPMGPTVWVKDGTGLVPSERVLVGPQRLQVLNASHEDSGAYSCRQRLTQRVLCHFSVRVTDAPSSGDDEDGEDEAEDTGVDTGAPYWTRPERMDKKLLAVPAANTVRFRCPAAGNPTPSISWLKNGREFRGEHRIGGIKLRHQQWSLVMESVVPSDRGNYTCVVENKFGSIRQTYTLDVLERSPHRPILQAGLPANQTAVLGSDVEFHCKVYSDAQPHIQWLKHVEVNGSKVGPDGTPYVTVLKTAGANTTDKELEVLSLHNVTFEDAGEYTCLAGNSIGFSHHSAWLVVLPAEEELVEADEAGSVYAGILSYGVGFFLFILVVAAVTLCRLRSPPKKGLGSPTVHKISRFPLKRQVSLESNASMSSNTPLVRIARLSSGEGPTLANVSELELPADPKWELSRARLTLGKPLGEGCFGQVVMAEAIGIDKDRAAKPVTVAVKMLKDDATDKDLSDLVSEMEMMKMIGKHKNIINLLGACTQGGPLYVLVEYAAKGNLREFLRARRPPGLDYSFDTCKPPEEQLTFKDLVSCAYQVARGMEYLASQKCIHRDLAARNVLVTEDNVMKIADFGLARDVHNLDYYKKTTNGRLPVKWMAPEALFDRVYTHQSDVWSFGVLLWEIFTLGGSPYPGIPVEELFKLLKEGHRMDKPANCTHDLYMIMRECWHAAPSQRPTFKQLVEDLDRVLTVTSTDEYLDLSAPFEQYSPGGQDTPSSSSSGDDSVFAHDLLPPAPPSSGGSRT
Sequence of Jak2 (O60674 whole entry, looked up): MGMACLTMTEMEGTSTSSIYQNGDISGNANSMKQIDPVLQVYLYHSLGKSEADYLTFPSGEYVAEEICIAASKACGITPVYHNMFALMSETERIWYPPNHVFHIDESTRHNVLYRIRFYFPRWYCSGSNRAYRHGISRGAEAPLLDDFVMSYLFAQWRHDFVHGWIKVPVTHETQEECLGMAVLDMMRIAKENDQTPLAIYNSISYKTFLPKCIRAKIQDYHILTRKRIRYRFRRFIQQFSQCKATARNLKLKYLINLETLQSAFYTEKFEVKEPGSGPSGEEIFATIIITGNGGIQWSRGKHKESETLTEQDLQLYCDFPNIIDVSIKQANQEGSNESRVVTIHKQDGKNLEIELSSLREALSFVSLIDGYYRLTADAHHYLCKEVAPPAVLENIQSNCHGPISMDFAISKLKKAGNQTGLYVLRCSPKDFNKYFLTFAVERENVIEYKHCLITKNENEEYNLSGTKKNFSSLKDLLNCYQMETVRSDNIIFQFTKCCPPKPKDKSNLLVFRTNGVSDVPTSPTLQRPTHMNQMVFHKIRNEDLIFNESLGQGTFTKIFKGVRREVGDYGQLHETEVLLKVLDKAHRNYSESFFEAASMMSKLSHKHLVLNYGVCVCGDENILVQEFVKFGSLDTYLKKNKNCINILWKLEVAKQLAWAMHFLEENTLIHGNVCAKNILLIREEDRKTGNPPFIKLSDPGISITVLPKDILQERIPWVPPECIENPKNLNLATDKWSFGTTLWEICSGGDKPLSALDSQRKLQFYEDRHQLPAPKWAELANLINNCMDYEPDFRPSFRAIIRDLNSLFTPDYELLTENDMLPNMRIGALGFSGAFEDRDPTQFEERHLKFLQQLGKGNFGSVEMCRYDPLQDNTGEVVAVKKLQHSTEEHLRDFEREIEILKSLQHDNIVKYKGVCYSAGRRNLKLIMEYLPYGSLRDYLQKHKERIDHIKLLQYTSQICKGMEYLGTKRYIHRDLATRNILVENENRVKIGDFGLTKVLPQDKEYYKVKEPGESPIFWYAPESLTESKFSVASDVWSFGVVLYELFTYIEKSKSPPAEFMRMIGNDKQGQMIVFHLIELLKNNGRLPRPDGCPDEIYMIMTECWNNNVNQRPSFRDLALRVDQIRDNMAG

Sequence | phosphorylation enrichment (Fyn) | phosphorylation enrichment (Fer (mouse)) | phosphorylation enrichment (Fes) | phosphorylation enrichment (EPHB1) | phosphorylation enrichment (Hck) | phosphorylation enrichment (FGFR3) | phosphorylation enrichment (c-Abl (mouse)) | phosphorylation enrichment (FGFR1) | phosphorylation enrichment (Jak2) | phosphorylation enrichment (AncSZ) | phosphorylation enrichment (c-Src) | phosphorylation enrichment (MERTK) | phosphorylation enrichment (EPHB2) | SH2 binding enrichment (c-Src SH2) | SH2 binding enrichment (Grb2 SH2) | SH2 binding enrichment (SHP2-C SH2)
KSSDVYVSYDY [SORL1_Y136] | 5.35 | 0.914 | 1.07 | 1.38 | 2.18 | 2.64 | 0.712 | 4.12 | 1.08 | 1.16 | 4.15 | 1.97 | 1.92 | 1.18 | 0.729 | 0.768
SVTCTYPPALN [TP53_Y126_S127P] | 0.448 | 0.473 | 0.873 | 0.471 | 0.557 | 0.578 | 0.97 | 0.502 | 1.07 | 0.886 | 0.485 | 0.477 | 0.578 | 0.448 | 0.865 | 0.617
HSGVSYFINLC [IGF2R_Y2024_N2020S_YF] | 0.44 | 0.652 | 1.51 | 0.682 | 0.482 | 0.835 | 1.21 | 0.439 | 1.34 | 1.47 | 0.439 | 0.417 | 0.558 | 0.461 | 0.651 | 0.491
GKANRYFSPNF [PTEN_Y336_D331G] | 0.479 | 0.477 | 0.612 | 0.379 | 0.398 | 0.685 | 0.779 | 0.455 | 0.811 | 0.622 | 0.528 | 0.46 | 0.424 | 0.525 | 0.967 | 1.06
LKLIQYHLTQQ [AKAP4_Y554] | 0.5 | 0.711 | 1.34 | 0.88 | 0.534 | 0.879 | 0.646 | 0.932 | 1.28 | 0.902 | 0.599 | 1.15 | 0.774 | 0.762 | 1.03 | 1.31
VFAPDFIAGVS [NOB1_Y366_Y366F] | 0.436 | 0.392 | 1.02 | 0.52 | 0.435 | 0.619 | 0.709 | 0.664 | 0.775 | 0.69 | 0.501 | 0.469 | 0.479 | 0.551 | 0.584 | 0.727
TINPIHEHVGY [CHN1_Y143_Y143H] | 0.377 | 0.757 | 0.727 | 0.674 | 0.474 | 0.414 | 0.57 | 0.426 | 0.864 | 0.679 | 0.423 | 0.446 | 0.433 | 0.58 | 0.823 | 0.87
GRDQPYSGTGD [TYRO3_Y828_A831T] | 0.549 | 0.526 | 0.757 | 0.385 | 0.481 | 0.52 | 0.673 | 0.49 | 0.713 | 0.667 | 0.441 | 0.492 | 0.43 | 0.518 | 1.02 | 0.49
SHISGYATLRR [RAPH1_Y1226] | 0.392 | 0.399 | 0.753 | 0.374 | 0.4 | 0.562 | 0.43 | 0.392 | 0.628 | 0.941 | 0.382 | 0.438 | 0.391 | 0.567 | 0.697 | 1.65
ALADKYHGGGG [HBB_Y146_H144D] | 0.39 | 0.375 | 0.517 | 0.287 | 0.355 | 0.402 | 0.423 | 0.396 | 0.439 | 0.467 | 0.318 | 0.322 | 0.374 | 0.38 | 0.727 | 0.56
TSIGNYFKPWF [DHCR24_Y299_N294T_YF] | 0.428 | 0.473 | 0.778 | 8.6 | 0.46 | 1.23 | 6.12 | 1.66 | 7.94 | 1.03 | 0.348 | 4.44 | 4.48 | 0.83 | 0.907 | 8.03
LITLVYGCSRQ [TMPRSS6_Y290_S288L] | 0.578 | 0.848 | 1.74 | 0.644 | 0.721 | 0.863 | 0.978 | 0.599 | 1.86 | 1.7 | 1.08 | 0.851 | 0.876 | 0.54 | 1.29 | 1.04
GEEIKYMLWLL [OTC_Y55_S60L] | 0.5 | 1.88 | 1.55 | 0.722 | 0.663 | 0.975 | 0.77 | 0.752 | 0.912 | 1 | 0.544 | 1.58 | 0.554 | 0.716 | 1.16 | 1.01
RQSRNYLGGFA [SYK_Y47] | 0.597 | 0.404 | 0.562 | 0.316 | 0.483 | 0.386 | 0.684 | 0.329 | 0.436 | 0.841 | 0.69 | 1.75 | 0.56 | 0.407 | 0.612 | 0.519
WANPEYTGGFK | 0.422 | 0.413 | 1 | 0.549 | 0.575 | 0.646 | 0.917 | 0.43 | 0.734 | 1.29 | 0.685 | 0.364 | 0.383 | 0.656 | 0.801 | 0.618
GGDGSYVSVPL [TNNI3K_Y425_S430L] | 0.406 | 0.486 | 0.599 | 0.414 | 0.437 | 0.573 | 0.471 | 0.5 | 0.558 | 0.692 | 0.38 | 0.474 | 0.509 | 0.631 | 0.887 | 0.682
SIKDKYVTALY [KCNH2_Y611] | 0.489 | 0.389 | 0.72 | 0.463 | 0.785 | 0.472 | 0.507 | 0.387 | 0.597 | 0.639 | 0.575 | 0.506 | 0.403 | 0.437 | 0.747 | 0.581
